Assay results from patent US6017886A, “Use of NDF peptide as growth factor for sensory epithelium” (Amgen Inc., priority 1999, dated 2000).

B1: FGF-10: recombinant derived FGF-10 (protein, UniProt O15520 38-208, looked up)
Fibroblast growth factor 10: QALGQDMVSPEATNSSSSSFSSPSSAGRHVRSYNHLQGDVRWRKLFSFTKYFLKIEKNGKVSGTKKENCPYSILEITSVEIGVVAVKAINSNYYLAMNKKGKLYGSKEFNNDCKLKERIEENGYNTYASFNWQHNGRQMYVALNGKGAPRRGQKTRRKNTSAHFLPMVVHS
B2: KGF: recombinant derived keratinocyte growth factor (KGF) (protein, UniProt P21781 32-194, looked up)
Fibroblast growth factor 7: CNDMTPEQMATNVNCSSPERHTRSYDYMEGGDIRVRRLFCRTQWYLRIDKRGKVKGTQEMKNNYNIMEIRTVAVGIVAIKGVESEFYLAMNKEGKLYAKKECNEDCNFKELILENHYNTYASAKWTHNGGEMFVALNQKGIPVRGKKTKKEQKTAHFLPMAIT
B3: GDNF: recombinant derived glial-derived neurotrophic factor (GDNF) (protein, UniProt P39905 78-211, looked up)
Glial cell line-derived …: SPDKQMAVLPRRERNRQAAAANPENSRGKGRRGQRGKNRGCVLTAIHLNVTDLGLGYETKEELIFRYCSGSCDAAETTYDKILKNLSRNRRLVSDKVGQACCRPIAFDDDLSFLDDNLVYHILRKHSAKRCGCI
B4: CNTF: recombinant derived ciliary-derived neurotrophic factor (CNTF) (protein, UniProt P26441 1-200, looked up)
Ciliary neurotrophic factor: MAFTEHSPLTPHRRDLCSRSIWLARKIRSDLTALTESYVKHQGLNKNINLDSADGMPVASTDQWSELTEAERLQENLQAYRTFHVLLARLLEDQQVHFTPTEGDFHQAIHTLLLQVAAFAYQIEELMILLEYKIPRNEADGMPINVGDGGLFEKKLWGLKVLQELSQWTVRSIHDLRFISSHQTGIPARGSHYIANNKKM

Tested on: utricular epithelium from seven day-old rats
Assay: BrdU incorporation (mitogenic activity) in primary culture of infant rat utricular sensory epithelium
Assay type: cell-based
Conditions: 50 ng/ml, seventy-two hours culture, infant (seven day-old) rat epithelium; control 50±7
Description: Sensory edithelial cells obtained from utricles in the inner ear of both seven day-old (infant) rats and six week-old (adult) rats were isolated with the use of thermolysin treatment; see Corwin et al., Abstracts of the Association for Research in Otolaryngology, Volume 18, page 87 (1995). All edges were trimmed away and the central portion of the epithelium was cut into quarters. Epithelial cells from the infant rats were cultured in DMEM/F12 with 10% FBS (Gibco BRL, Grand Island, N.Y.), and 3 micrograms per milliliter (μg/ml) of mitosis tracer BrdU (Aldrich Chemicals, Milwaukee, Wis.) for seventy-two hours, with or without 50 nanograms per milliliter (ng/ml) of the peptide of SEQ ID NO: 1 or 50 ng/ml of recombinant derived FGF-10, recombinant derived FGF-16, recombinant derived ciliary-derived neurotrophic factor (CNTF), recombinant derived neurotrophic growth facor (NGF), recombinant derived glial-derived neurotrophic factor (GDNF), recombinant derived keratinocyte growth factor (KGF), or a control (no growth factor present). The experiment was ended by fixing in 4% paraformaldehyde for one hour.
After several washes, the explants were immunostained for calretinin (a vestibular organ hair cell marker) using rabbit antiserum (SWant Swiss Antibodies, Belinzona, Switzerland), diluted 1:10,000. The secondary antibody was goat anti-rabbit immunoglobulin conjugated to biotin, diluted 1:1,000. Extensive washes were followed by incubating the explants with egg white avidin conjugated to Cy3, diluted 1:1,000. The explants were fixed again with paraformaldehyde as described above, then processed for BrdU immunostaining (a measure of cell proliferation) using standard immunostaining protocols. The mouse monoclonal ant-BrdU antibody was obtained from Caltag Laboratories of San Franscisco, Calif. The secondary antibody, a goat anti-mouse conjugated to FITC, was obtained from Antibodies, Inc. of Davis, Calif.

Molecule | number of BrdU-positive nuclei per piece of epithelium
B1 | 11±4
B2 | 89±16
B3 | 37±13
B4 | 23±3
